According to patent US20200121712A1, “AGENT TO BE APPLIED TO OPHTHALMIC DEVICE” (SEIKAGAKU CORPORATION, priority 2015, published 2020):

System: mucin
Assay: Viscosity increasing effect by interaction with mucin (rotatory viscometer)
Type: physicochemical
Conditions: for rate of increase in viscosity (increase in value of viscosity divided by viscosity of sample 3): 1.0 w/v % mixed with 20 w/v % mucin solution (final concentration 0.5 w/v %)
Protocol: In general, with respect to a film of a lubricant formed on a friction surface for reducing friction under the maintained state of fluid friction, the higher the viscosity of the lubricant, the higher the stability of the film of the lubricant. Therefore, the friction reducing effect of the cinnamic acid derivative was evaluated using, as an index, the increase in viscosity due to the interaction of the derivative with mucin contained in the tear fluid.
HA-3APC prepared in Example 1 was dissolved in PBS (pH 7.4) to thereby prepare solutions having concentrations of 1 w/v %, 0.5 w/v % and 0.25 w/v %.
Similarly, HA was dissolved in PBS (pH 7.4) to thereby prepare an HA solution having a concentration of 1 w/v %.
0.4 mL of each of these samples (1 w/v % HA-3APC, 0.5 w/v % HA-3APC, 0.25 w/v % HA-3APC and 1 w/v % HA) having added thereto 0.4 mL of 20 w/v % mucin was sample 1 for measurement.
A sample of 0.4 mL of 20 w/v % mucin having added thereto 0.4 mL of PBS was sample 2 for measurement.
A sample prepared in substantially the same manner as in sample 1 for measurement except that 0.4 mL of PBS was added in place of mucin was sample 3 for measurement.
Each sample for measurement was subjected, immediately after thorough mixing, to measurement of viscosity (shear rate: 100 S^−1, temperature: 35° C.) using a rotatory viscometer (ADVANCED RHEOMETER (TA Instruments)), and increase in value of viscosity was obtained by the following formula.
Increase in value of viscosity=μ1−μ2−μ3
μ1: Viscosity of sample 1 for measurement
μ2: Viscosity of sample 2 for measurement
μ3: Viscosity of sample 3 for measurement
Comparison of the strength of the interaction with mucin was carried out between HA and HA-3APC based on the standardized rate of increase in viscosity obtained by dividing the increase in value of viscosity with the viscosity of sample 3 for measurement. Such a means for standardization is frequently used in comparison of interactions with mucin among different test substances (for example, J. Ocul Pharmacol Ther. 2007.23(6): 541-50).

| Substance | rate of increase in viscosity (increase in value of viscosity divided by viscosity of sample 3) (shear rate 100 S^-1, 35° C.) | increase in value of viscosity (strength of interaction with mucin) (0.25, 0.5 and 1.0 w/v % mixed with 20 w/v % mucin (final 0.125, 0.25, 0.5 w/v %), shear rate 100 S^-1, 35° C.) | rate of increase in viscosity relative to that of HA (1.0 w/v % (final concentration 0.5 w/v %) with 20 w/v % mucin) |
| --- | --- | --- | --- |
| hyaluronic acid [HA, reference compound] | 2.49 |  |  |
| HA having covalently bonded thereto a cinnamic acid aminopropyl ester [HA-3APC] | 3.65 | increased depending on the concentration | about 1.5 times |
